Results as given in the Human Domainome abundance scans (Beltran et al. 2025).
± gives the uncertainty stated by the source.

B1: Gamma-crystallin S, residues 96 to 176; numbered along this chain, P22914 (parent)
chain: IQIFEKGDFSGQMYETTEDCPSIMEQFHMREIHSCKVLEGVWIFYELPNYRGRQYLLDKKEYRKPIDWGAASPAVQSFRRI

Variants of: B1
Assay: abundance fitness (aPCA) (normalised: wild type 0, dead -1); higher = more abundant; growth selection in yeast, the domain comes from the species named
Conditions: Homo sapiens

Abundance fitness of substitutions, site by site:
L47: G -0.051 ± 0.037; Q -0.113 ± 0.12; M 0.07 ± 0.094; A -0.047 ± 0.068; N -0.203 ± 0.22; E -0.004 ± 0.062; F 0.046 ± 0.083; C -0.022 ± 0.11; K 0 ± 0.099; R 0.011 ± 0.042; I -0.436 ± 0.11; P -0.909 ± 0.26; S -0.056 ± 0.073; H 0.065 ± 0.11; D -0.093 ± 0.18
S34: D -0.898 ± 0.28; A -0.004 ± 0.045; K -0.954 ± 0.15; E -0.772 ± 0.097; N -0.434 ± 0.12; L -0.967 ± 0.12; M -0.779 ± 0.16; F -1.06 ± 0.2; Q -0.485 ± 0.11; I -0.844 ± 0.34; H -0.641 ± 0.16; T -0.601 ± 0.099; G 0.06 ± 0.035; R -0.623 ± 0.06; P -1.08 ± 0.23; Y -0.646 ± 0.17; C -0.047 ± 0.056
K36: S 0.015 ± 0.048; C -0.078 ± 0.064; F 0.1 ± 0.073; E -0.021 ± 0.055; T -0.019 ± 0.057; A 0.017 ± 0.045; P -1.19 ± 0.21; Y 0.068 ± 0.092; N -0.037 ± 0.12; H -0.013 ± 0.086; M 0.024 ± 0.075; Q -0.002 ± 0.07; I -0.045 ± 0.11; W 0.15 ± 0.052; R 0.022 ± 0.035; D -0.019 ± 0.083; G -0.171 ± 0.037
F44: N -0.868 ± 0.44; W -0.141 ± 0.075; I -0.215 ± 0.25; A -0.007 ± 0.05; Q -0.602 ± 0.097; L 0.005 ± 0.052; G 0.015 ± 0.04; M 0.064 ± 0.055; P -1.11 ± 0.45; E -0.951 ± 0.18; S -0.272 ± 0.055; H -0.441 ± 0.075; T -0.195 ± 0.069; V 0.009 ± 0.053; R -1.02 ± 0.086; Y -0.104 ± 0.12; C 0.035 ± 0.068; K -0.929 ± 0.22
H33: V -0.013 ± 0.039; G 0.012 ± 0.033; Y 0.02 ± 0.062; A -0.047 ± 0.049; C 0.035 ± 0.063; E 0.054 ± 0.046; S 0.03 ± 0.047; R -0.047 ± 0.037; I -0.002 ± 0.08; N -0.01 ± 0.11; M 0.027 ± 0.074; P 0.057 ± 0.062; Q -0.023 ± 0.067; W 0.062 ± 0.05; D 0.077 ± 0.055; F 0.093 ± 0.094; L -0.021 ± 0.044; K -0.12 ± 0.077; T 0.06 ± 0.058
V41: Y -0.162 ± 0.12; C -0.112 ± 0.1; T 0.096 ± 0.089; Q 0.055 ± 0.081; D -0.01 ± 0.17; M 0.041 ± 0.095; P -0.051 ± 0.1; L 0.023 ± 0.053; F -0.001 ± 0.092; G 0.105 ± 0.041; S -0.026 ± 0.069; R 0.047 ± 0.046; I -0.101 ± 0.14; W -0.132 ± 0.058; A 0.063 ± 0.059; K 0.052 ± 0.12
Y45: N -0.123 ± 0.16; F -0.04 ± 0.11; H -0.123 ± 0.12; A -0.397 ± 0.076; K -0.712 ± 0.24; R -0.841 ± 0.087; E -0.794 ± 0.14; C -0.273 ± 0.1; Q -0.888 ± 0.17; V -1.07 ± 0.16; W -0.065 ± 0.092; G -0.669 ± 0.082; T -0.304 ± 0.14; L -0.651 ± 0.098; I -1.1 ± 0.45; D -1.03 ± 0.39
G40: T -0.251 ± 0.075; I -0.759 ± 0.28; H -0.252 ± 0.14; K -0.337 ± 0.1; D -0.012 ± 0.1; Y -0.137 ± 0.15; S -0.051 ± 0.061; L -0.739 ± 0.1; M -0.464 ± 0.092; V -1.06 ± 0.16; A -0.051 ± 0.039; W -0.312 ± 0.068; R -0.322 ± 0.049; F -0.261 ± 0.13; N -0.14 ± 0.14; C -0.158 ± 0.086; P -0.028 ± 0.086
W42: D -1.06 ± 0.32; G -1.02 ± 0.092; A -0.157 ± 0.056; E -0.363 ± 0.13; Q -0.906 ± 0.24; K -0.787 ± 0.19; V -0.042 ± 0.046; T -0.709 ± 0.13; Y 0.046 ± 0.073; H -0.461 ± 0.14; C -0.156 ± 0.073; M -0.231 ± 0.096; L -0.241 ± 0.064; S -0.901 ± 0.091; N -0.445 ± 0.13; R -0.986 ± 0.093; P -1.04 ± 0.28; F -0.051 ± 0.11
I43: R 0.016 ± 0.048; N 0.007 ± 0.14; Q 0.056 ± 0.13; S 0.015 ± 0.053; H -0.162 ± 0.36; K -0.123 ± 0.1; V -0.013 ± 0.049; P -1.1 ± 0.2; M 0.074 ± 0.12; F 0.008 ± 0.089; G 0.028 ± 0.042; W -0.032 ± 0.07; Y 0.047 ± 0.12; E 0.117 ± 0.063
C35: P -0.788 ± 0.12; Y -0.217 ± 0.11; V 0.021 ± 0.048; N -0.529 ± 0.12; W -0.006 ± 0.047; G 0.048 ± 0.033; R -0.987 ± 0.077; S 0.052 ± 0.044; L 0.102 ± 0.042; K -1.01 ± 0.21; M 0.111 ± 0.046; T 0.074 ± 0.07; A -0.027 ± 0.053; E -0.952 ± 0.14; I -0.039 ± 0.1; H -0.769 ± 0.23; Q -0.803 ± 0.097; F 0.133 ± 0.071
H28: C 0.031 ± 0.086; Y 0.035 ± 0.11; D 0.027 ± 0.099; E 0.006 ± 0.09; R -0.047 ± 0.05; M -0.05 ± 0.089; P 0.137 ± 0.056; I 0.079 ± 0.17; W 0.05 ± 0.072; V -0.011 ± 0.052; G 0.048 ± 0.047; Q 0.037 ± 0.13; S 0.042 ± 0.069; K 0.07 ± 0.099; F 0.332 ± 0.26; L 0.035 ± 0.056; N 0.009 ± 0.081; T 0.036 ± 0.08
E46: M -0.21 ± 0.091; C -0.008 ± 0.19; H -0.047 ± 0.21; T -0.13 ± 0.096; F -0.584 ± 0.14; N -0.275 ± 0.16; L -0.279 ± 0.052; A -0.016 ± 0.082; G -0.094 ± 0.051; R -0.137 ± 0.053; Q 0.034 ± 0.1; D -0.476 ± 0.26; P -0.16 ± 0.082; W -0.875 ± 0.11; S -0.101 ± 0.054; I -0.777 ± 0.25; V -0.386 ± 0.059
L38: A 0.032 ± 0.044; Q -0.072 ± 0.054; W -0.024 ± 0.049; G 0.02 ± 0.03; K -0.016 ± 0.075; S -0.014 ± 0.043; C -0.067 ± 0.065; T 0.012 ± 0.058; Y -0.079 ± 0.096; E -0.004 ± 0.053; I -0.15 ± 0.11; R 0.004 ± 0.037; F -0.017 ± 0.071; H 0.043 ± 0.12; M -0.046 ± 0.095; P 0.1 ± 0.06
R30: L -0.031 ± 0.048; S -0.07 ± 0.046; K 0.055 ± 0.078; A 0.061 ± 0.046; F 0.005 ± 0.072; Q 0.11 ± 0.088; V -0.144 ± 0.038; E 0.066 ± 0.063; C 0.009 ± 0.058; P 0 ± 0.1; M 0.047 ± 0.076; D 0.009 ± 0.095; T 0.011 ± 0.073; H 0.026 ± 0.095; N 0.044 ± 0.14; W 0.105 ± 0.051; I -0.099 ± 0.11; Y -0.02 ± 0.1; G 0 ± 0.038
I32: C 0.015 ± 0.088; P 0.051 ± 0.11; N -0.223 ± 0.23; T -0.027 ± 0.083; R -1.01 ± 0.095; S -0.087 ± 0.063; M -0.001 ± 0.099; E -0.348 ± 0.18; Q -0.809 ± 0.28; V -0.029 ± 0.063; W -0.193 ± 0.066; L 0.025 ± 0.07; F 0.09 ± 0.11; K -0.755 ± 0.34
V37: N 0.087 ± 0.11; I -0.142 ± 0.12; L 0.023 ± 0.039; M 0.049 ± 0.057; D -0.166 ± 0.066; C 0.075 ± 0.058; T 0.004 ± 0.043; Y -0.769 ± 0.21; K 0.027 ± 0.067; G -0.075 ± 0.04; R 0.042 ± 0.037; Q -0.105 ± 0.057; A 0.081 ± 0.039
E39: D -0.028 ± 0.12; N 0.079 ± 0.13; F -0.025 ± 0.13; S 0.035 ± 0.056; R 0.054 ± 0.037; K 0 ± 0.069; V 0.061 ± 0.052; W -0.06 ± 0.035; A 0.059 ± 0.046; Q -0.03 ± 0.081; P -0.227 ± 0.078; Y -0.045 ± 0.092; T -0.012 ± 0.052; C -0.039 ± 0.081; M -0.014 ± 0.057; H -0.1 ± 0.12
M29: V 0.034 ± 0.052; H 0.124 ± 0.21; L -0.084 ± 0.055; D 0.034 ± 0.09; F 0.036 ± 0.076; I -0.015 ± 0.11; S 0.063 ± 0.051; W 0.027 ± 0.071; Q 0.048 ± 0.14; A 0.048 ± 0.046; T 0.109 ± 0.09; K -0.006 ± 0.11; G 0.053 ± 0.045; Y 0.025 ± 0.14; E 0.109 ± 0.078; P 0.058 ± 0.079; C 0.132 ± 0.13; N 0.226 ± 0.13
E31: V 0.072 ± 0.045; G 0.015 ± 0.045; S -0.034 ± 0.068; W 0.084 ± 0.093; T 0.106 ± 0.086; H 0.069 ± 0.14; A 0.066 ± 0.048; M -0.039 ± 0.089; L 0.056 ± 0.051; N -0.008 ± 0.084; I 0.05 ± 0.081; Y 0.116 ± 0.12; K -0.034 ± 0.1; P -0.056 ± 0.094; Q 0.02 ± 0.097; D 0.138 ± 0.12; F 0.041 ± 0.081; C -0.13 ± 0.12
